Test results: patent US20180135015A1

Molecular target: NKG2D ligands (NKG2DL) on target cells
Test: cell-based or functional assay

Substance: NKG2D-DAP10-CD3zeta chimeric receptor complex (from UniProt Q9UBK5 19-93)
- target cell apoptosis (U-2 OS), apoptotic cells/0.07 mm^2 (apoptotic cells/0.07 mm^2): 11.7
